Here are results for 2 molecules from patent US20150147272A1, “RADIO-PHARMACEUTICAL COMPLEXES” (Algeta ASA, priority 2012, published 2015).

Assay [1] addresses T1, CD33-positive HL-60 cells (Homo sapiens, UniProt P20138).
T1 construct: endogenous in cells; host or cells: HL-60 cells
Put plainly: Binding to CD33-positive HL-60 cells by flow cytometry. The conditions noted are these: compared with AGC0700. Here is the method: Binding to CD33-positive HL-60 cells were studied by flow cytometry. The determination of EC50 based on the plotted curve gives an approximate value for the affinity. The commercially available mouse anti human CD33 (BD Pharmingen; #555450, 1 mg/mL) was used as a reference antibody for assessment of the affinity, including a setup with a 50:50 mixture with the mAb to be analyzed. This assay was also used to confirm that target binding affinity was not negatively affected by conjugation with the chelator.
HL-60 cells were grown in Iscove's Modified Dulbecco's Medium (IMDM; Invitrogen; #12440-046) in the presence of 20% of fetal bovine serum and penicillin/streptomycin. Approximately 20 mL cell culture was harvested by centrifugation at 4° C. for 5 min at 300 g. […] Subsequently, 20 μL of the preparation of resuspended cells was diluted 1:500 in Coulter Isoton II Diluent, and counted using a Beckman Coulter Z2 instrument (Beckman Coulter; CA, USA). […]
The mAb or conjugate to be analyzed was prepared fresh form frozen stock by shifting the storage buffer to PBS, kept at 4° C., and used within a few days after preparation. […] All samples were analysed in 96-well round or conical bottom plates. Fluorescent signals were recorded on a Beckham Coulter Cell lab Quant SC flow cytometer (Beckman Coulter; CA, USA). […]
(A flow cytometer gives signals particle by particle.)

The subject of assay [2] is CD33 positive HL-60 cells. Kind of assay: Th-227-induced in vitro cell cytotoxicity (CellTiter-Glo ATP viability). Type of assay: cell-based, human. The settings on record: 3 nM or 0.3 nM, specific activity 44 kBq/μg, followed to day 7. Here is the method: In vitro cell cytotoxicity was investigated in CD33 positive HL-60 cells. AGC0715 and the control trastuzumab conjugated AGC0015 were used to chelate Th-227 to a specific activity of 44 kBq/μg. HL-60 cells were grown at 37° C. with 5% CO2, and split 1:5 three times a week. The day before the assay the culture medium (Iscove's Modified Dulbecco's Medium (IMDM) with 20% FBS and 1% Penicillin/Streptomycin) was replaced by new medium and the volume adjusted to give 400 000 cells per mL.
About, 1 600 000 cell (4 mL) were added to each well in a 6 well plate. The plate was incubated until next day for addition of labelled mAb, or culture medium. After adding labelled mAb, or culture medium, the plate was incubated for 4 additional hours. In one experiment AGC0715 or trastuzumab-AGC0015 was added to each well to a final concentration of 3 nM. In another experiment the final concentration was 0.3 nM.
Following incubation, the cells were washed twice in culture medium, and the ATP in the supernatant and in the pellet was measured. The cells were then split 1:2 and incubated in culture medium at 37° C. with 5% CO2. The same procedure, but with only one wash, was repeated at days 2, 4, and 7.
(In general: In ATP-based viability assays light output follows the ATP content of the culture.)

T1 sequence (P20138 18-364): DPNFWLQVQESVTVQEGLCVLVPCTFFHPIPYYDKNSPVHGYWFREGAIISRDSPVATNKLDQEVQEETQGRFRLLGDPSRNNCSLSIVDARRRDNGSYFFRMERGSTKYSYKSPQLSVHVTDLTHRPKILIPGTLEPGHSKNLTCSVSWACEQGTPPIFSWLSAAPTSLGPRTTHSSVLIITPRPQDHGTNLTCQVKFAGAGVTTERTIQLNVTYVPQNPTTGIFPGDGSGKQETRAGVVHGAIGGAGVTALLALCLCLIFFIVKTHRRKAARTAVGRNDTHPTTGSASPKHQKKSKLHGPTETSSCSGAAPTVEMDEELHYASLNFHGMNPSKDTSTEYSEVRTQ

B1: AGC0715: AGC0700 conjugated to the water soluble chelator AGC0015 (12) (conjugate)
heavy: QVQLVQSGAEVKKPGSSVKVSCKASGYTFTDYNMHWVRQAPGQGLEWIGYIYPYNGGTGYNQKFKSKATITADESTNTAYMELSSLRSEDTAVYYCARGRPAMDYWGQGTLVTVSSASTKGPSVFPLAPSSKSTSGGTAALGCLVKDYFPEPVTVSWNSGALTSGVHTFPAVLQSSGLYSLSSVVTVPSSSLGTQTYICNVNHKPSNTKVDKKVEPKSCDKTHTCPPCPAPELLGGPSVFLFPPKPKDTLMISRTPEVTCVVVDVSHEDPEVKFNWYVDGVEVHNAKTKPREEQYNSTYRVVSVLTVLHQDWLNGKEYKCKVSNKALPAPIEKTISKAKGQPREPQVYTLPPSRDELTKNQVSLTCLVKGFYPSDIAVEWESNGGQPENNYKTTPPVLDSDGSFFLYSKLTVDKSRWQQGNVFSCSVMHEALHNHYTQKSLSLSPG
light: DIQMTQSPSSLSASVGDRVTITCRASESVDNYGISFMNWFQQKPGKAPKLLIYAASNQGSGVPSRFSGSGSGTDFTLTISSLQPDDFATYYCQQSKEVPWTFGQGTKVEIKRTVAAPSVFIFPPSDEQLKSGTASVVCLLNNFYPREAKVQWKVDNALQSGNSQESVTEQDSKDSTYSLSSTLTLSKADYEKHKVYACEVTHQGLSSPVTKSFNRGEC
modifications: chelator AGC0015 (12) conjugated; site not stated; none, one or two chelators on a chain
Consider B1, for which, in assay [1], the binding affinity entry is “comparable to the non-conjugated AGC0700”.

B2: AGC0715-Th-227: antibody-conjugate AGC0715 chelated with Th-227 (conjugate)
heavy: B1 heavy
light: B1 light
modifications: chelator AGC0015 (12) conjugated, chelating Th-227; site not stated
For the molecule B2, in assay [2], the “cellular toxicity (cell viability by ATP)” value is given as “resulted in cellular toxicity”.
